Test results as given in article PMC3102665, “A Sir2-Like Protein Participates in Mycobacterial NHEJ” (PLoS ONE, 2011).

Key:
His-MtuLigD protein = target: T1, His-MtuLigD protein (M. tuberculosis, UniProt P9WNV3 1-759); assay: pull-down; conditions: both partners purified
T1 construct: The vector pET28a with a BamHI insert would put the His tag at the N-terminus

His-MsmLigD protein = target: T2, His-MsmLigD protein (M. smegmatis, UniProt A0R3R7 1-762); assay: pull-down; GST fusion held on glutathione-Sepharose 4B beads, incubated with purified His-tagged protein at 4°C for 8 h in 50 mM Tris-HCl pH 7.5, 200 mM NaCl, 10% glycerol; washes with 0.1% Nonidet P-40; Western blot with anti-His-tag antibody; conditions: both partners purified
T2 construct: Multifunctional DNA ligase LigD of Mycobacterium smegmatis; The vector pET28a with a BamHI insert would put the His tag at the N-terminus; source: E. coli BL21 (DE3), purified (Ni-NTA)
T2 sequence (looked up): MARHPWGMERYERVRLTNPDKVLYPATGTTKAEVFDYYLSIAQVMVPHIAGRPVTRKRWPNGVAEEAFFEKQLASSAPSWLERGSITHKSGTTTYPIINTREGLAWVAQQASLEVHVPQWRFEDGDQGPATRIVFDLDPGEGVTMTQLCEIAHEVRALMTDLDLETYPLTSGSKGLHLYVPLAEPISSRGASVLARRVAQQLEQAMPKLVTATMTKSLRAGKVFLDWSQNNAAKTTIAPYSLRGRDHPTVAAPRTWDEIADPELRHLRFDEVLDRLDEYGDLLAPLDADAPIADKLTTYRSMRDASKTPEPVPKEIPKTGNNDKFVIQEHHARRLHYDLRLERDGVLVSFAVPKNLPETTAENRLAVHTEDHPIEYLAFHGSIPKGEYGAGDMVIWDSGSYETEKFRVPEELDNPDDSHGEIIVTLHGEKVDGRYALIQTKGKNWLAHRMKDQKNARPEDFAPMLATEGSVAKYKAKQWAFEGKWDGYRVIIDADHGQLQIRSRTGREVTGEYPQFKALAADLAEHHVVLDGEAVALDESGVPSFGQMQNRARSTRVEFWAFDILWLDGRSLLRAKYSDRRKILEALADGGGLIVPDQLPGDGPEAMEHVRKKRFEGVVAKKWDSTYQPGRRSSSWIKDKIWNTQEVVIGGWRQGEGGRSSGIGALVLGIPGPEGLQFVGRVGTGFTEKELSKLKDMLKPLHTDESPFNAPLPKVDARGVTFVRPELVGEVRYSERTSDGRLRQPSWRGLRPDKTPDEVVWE

T1 sequence (P9WNV3 whole entry): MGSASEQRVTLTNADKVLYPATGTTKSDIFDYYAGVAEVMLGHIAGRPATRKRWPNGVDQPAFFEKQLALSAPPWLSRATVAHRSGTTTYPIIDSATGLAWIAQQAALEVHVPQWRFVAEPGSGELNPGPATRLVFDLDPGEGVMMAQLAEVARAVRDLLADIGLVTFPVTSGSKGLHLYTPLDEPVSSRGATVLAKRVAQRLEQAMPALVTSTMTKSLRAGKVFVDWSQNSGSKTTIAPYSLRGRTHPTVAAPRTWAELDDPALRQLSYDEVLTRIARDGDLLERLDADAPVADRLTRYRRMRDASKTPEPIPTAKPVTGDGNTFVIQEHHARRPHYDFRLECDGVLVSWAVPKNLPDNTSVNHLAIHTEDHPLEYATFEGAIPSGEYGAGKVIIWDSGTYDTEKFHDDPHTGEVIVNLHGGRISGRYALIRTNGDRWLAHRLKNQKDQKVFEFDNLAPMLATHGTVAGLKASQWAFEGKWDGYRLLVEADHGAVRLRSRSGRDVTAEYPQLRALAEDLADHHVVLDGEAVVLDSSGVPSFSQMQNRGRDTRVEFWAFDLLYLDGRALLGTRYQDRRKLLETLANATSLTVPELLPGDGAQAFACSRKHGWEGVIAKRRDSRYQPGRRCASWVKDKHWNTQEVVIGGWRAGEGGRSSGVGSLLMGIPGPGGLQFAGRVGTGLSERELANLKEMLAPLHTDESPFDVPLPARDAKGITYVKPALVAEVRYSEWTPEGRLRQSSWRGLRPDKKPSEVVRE

B1: GST-MtuSir2 fusion protein (enzyme)
chain: MRVAVLSGAGISAESGVPTFRDDKNGLWARFDPYELSSTQGWLRNPERVWGWYLWRHYLVANVEPNDGHRAIAAWQDHAEVSVITQNVDDLHERAGSGAVHHLHGSLFEFRCARCGVPYTDALPEMPEPAIEVEPPVCDCGGLIRPDIVWFGEPLPEEPWRSAVEATGSADVMVVVGTSAIVYPAAGLPDLALARGTAVIEVNPEPTPLSGSATISIRESASQALPGLLERLPALLK
notes: the vector pGEX-6P-1 would put GST at the N-terminus; also called MtuSir2-GST
Question: Does B1 bind (His-MtuLigD protein)?
Answer: binds

B2: GST-MsmSir2 fusion protein (enzyme, M. smegmatis, UniProt A0R2N3 1-240, looked up)
chain: MQVTVLSGAGISAESGVPTFRDAETGLWAQVDPYEISSTDGWQRNPEKVWAWYLWRHYMMARVAPNEAHRTVAAWEDHLDVRVVTQNIDDLHERAGSTNVYHLHGSLFEFRCDACGSAFEGNLPEMPEPVETIDPPVCPCSGLIRPSVVWFGEPLPDAAWNRSVLAVSSADVVIVVGTSSIVYPAAGLPEAALAAGKPVIEVNPERTPLSDSATVSLRETASEALPTLLQRLPELLNRSA
notes: Sir2 (NAD-dependent deacetylase MSMEG_5175) of Mycobacterium smegmatis; the vector pGEX-6P-1 would put GST at the N-terminus; also called MsmSir2-GST; source: E. coli BL21 (DE3), purified (glutathione-Sepharose 4B)
Question: Does B2 bind (His-MsmLigD protein)?
Answer: binds
